Results: patent US20040258747A1 (G GASLINI CHILDREN S HOSPITAL, published 2004)
Ends that are not written are not given here.

Target: T1, CD13 (aminopeptidase N) as expressed on THP-1 cells (human acute monocytic leukemia) (human, UniProt P15144 2-967)
T1 construct: whole, on cells; The CD13 form on THP-1 is recognised by WM15 but not by the NGR liposomes
Assay: FACS of doxorubicin fluorescence, THP-1 cells 1 h at 4 C

T1 sequence (P15144 2-967): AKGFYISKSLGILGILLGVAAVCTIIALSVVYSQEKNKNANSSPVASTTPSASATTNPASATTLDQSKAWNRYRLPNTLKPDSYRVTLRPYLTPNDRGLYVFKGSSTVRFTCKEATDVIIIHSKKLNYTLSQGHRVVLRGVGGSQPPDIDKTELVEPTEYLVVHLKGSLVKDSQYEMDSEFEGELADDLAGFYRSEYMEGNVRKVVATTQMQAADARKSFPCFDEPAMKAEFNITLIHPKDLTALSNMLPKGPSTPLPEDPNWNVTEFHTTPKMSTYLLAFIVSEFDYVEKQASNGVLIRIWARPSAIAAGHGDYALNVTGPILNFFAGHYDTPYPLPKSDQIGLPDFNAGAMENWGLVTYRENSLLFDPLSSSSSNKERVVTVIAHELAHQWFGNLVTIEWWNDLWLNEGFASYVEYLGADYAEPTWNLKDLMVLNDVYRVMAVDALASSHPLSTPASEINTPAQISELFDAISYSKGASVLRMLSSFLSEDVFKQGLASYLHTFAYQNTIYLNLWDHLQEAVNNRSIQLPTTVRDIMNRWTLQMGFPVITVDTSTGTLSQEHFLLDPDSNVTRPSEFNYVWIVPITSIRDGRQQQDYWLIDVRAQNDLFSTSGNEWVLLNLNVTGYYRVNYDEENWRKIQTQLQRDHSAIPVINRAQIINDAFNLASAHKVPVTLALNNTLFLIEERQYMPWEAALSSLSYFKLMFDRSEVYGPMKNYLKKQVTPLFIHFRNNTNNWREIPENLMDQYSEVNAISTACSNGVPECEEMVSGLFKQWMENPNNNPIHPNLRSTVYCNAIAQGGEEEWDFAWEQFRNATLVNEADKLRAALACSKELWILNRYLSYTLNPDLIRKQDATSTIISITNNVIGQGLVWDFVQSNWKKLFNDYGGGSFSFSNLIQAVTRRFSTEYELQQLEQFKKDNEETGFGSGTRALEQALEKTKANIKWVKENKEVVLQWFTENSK

binding result: no binding
B1: ARA-targeted (sham-targeted) sterically stabilized liposomal doxorubicin (ARA-SL[DXR]): control peptide GARAGGVRSSSRTPSDKYC coupled to the liposome surface (peptide)
peptide: GARAGGVRSSSRTPSDKYC(PEG2000‑DSPE‑MAL (liposome))
modifications: not fully specified; also: on surface of doxorubicin-loaded sterically stabilized liposome
notes: Control formulation; Same liposome as NGR-SL[DXR], with NGR replaced by ARA in the peptide; also called mismatched peptide ARA
